B1: rS3-4mer: recombinant tetramer of S3 peptide in tandem repeat with Asp-Pro linkers, 18.4 kDa, SEQ ID NO:9 (protein)
chain: PQDPHAEHKVKIGVEQKYGQFPQGTEVTYTCSGNYFLMDPQDPHAEHKVKIGVEQKYGQFPQGTEVTYTCSGNYFLMDPQDPHAEHKVKIGVEQKYGQFPQGTEVTYTCSGNYFLMDPQDPHAEHKVKIGVEQKYGQFPQGTEVTYTCSGNYFLMD

Legend:
[1] = system: LPS-induced hTNF-α secretion in THP-1 cells; experiment: Suppression of LPS-induced hTNF-α secretion in human THP-1 cells; type: cell-based; details: for ENC50, concentration to achieve 50% inhibition of LPS-induced hTNF-α production: THP-1 cells incubated with 50 EU/ml of LPS, 6 h
Experimental: THP-1 cells were cultured at 37° C. in a humidified environment in the presence of 5% CO2. RPMI 1640 medium was supplemented with 10% fetal bovine serum (FBS), penicillin (100 U/ml), and streptomycin (100 μg/ml). The cells were maintained at a density of 2.5×10^5-6 cells/ml. THP-1 monocytes were transformed into macrophages by addition of phorbol myristic acid, PMA (Sigma) at a stock of 0.3 mg/ml in dimethyl sulfoxide to give a final concentration of 30 ng/ml and 0.01% dimethyl sulfoxide. PMA-treated cell suspensions were immediately plated into 96-well microtiter plate at a density of 4×10^5 cells/ml and allowed to differentiate for 48 h at 37° C. The culture medium was removed and the cells were washed twice with serum-free RPMI 1640. Thereafter, the macrophages were stimulated with 50 EU/ml LPS (a specific activity of LPS that has been standardized by LAL test against FDA-approved LPS standards), peptides alone or LPS (preincubated with various concentrations of peptides) and incubated at 37° C. After 6 h, the culture medium was collected and hTNF-α concentration in the supernatants was assayed using ELISA.

[2] = ELISA-based LPS binding assay; parameters: species or system Escherichia coli 055:B5; details: peptide concentration achieving 50% of maximum binding to LPS on the ELISA plate
Experimental: LPS was coated overnight on 96-well plates. Varying concentrations of peptides were allowed to interact with the immobilized LPS. The amount of bound peptides was determined by rabbit anti-S3 IgG and quantitated by ABTS substrate. The average OD405nm of the triplicate samples were calculated and plotted with the corresponding concentration.
The polysorp 96-well plate (MaxiSorp™, Nunc) was first coated with 100 μl per well of 4 μg/ml (approximately 1 μM) of LPS diluted in pyrogen-free phosphate-buffered saline (PBS). The plate was sealed and incubated overnight at room temperature. The wells were aspirated and washed 4 times with 300 μl wash solution (PBS containing 0.05% Tween-20). The wells were blocked with wash solution containing 2% BSA for 1 h at room temperature. After washing 2 times, varying concentrations of peptides were allowed to interact with bound LPS at room temperature for 3 h. Bound peptides were detected by incubation with rabbit anti-S3 antibody and 1:2000 of goat anti-rabbit antibody conjugated with HRP. Each antibody was incubated for 2 h at 37° C. In the final step, 100 μl of substrate, ABTS (Boehringer Mannheim), was added. The absorbance was measured at 405 nm with reference wavelength at 490 nm.

[3] = system: LPS-induced limulus amoebocyte lysate (LAL) reaction; experiment: Endotoxin neutralization assay based on anti-LAL test (LAL Kinetic-QCL); type: biochemical, Escherichia coli 055:B5; details: for ENC50 (50% endotoxin-neutralizing concentration), inhibition of LPS-induced LAL assay: against 5 EU/ml of LPS
Description: The LAL Kinetic-QCL kit utilizes the initial part of the LPS-triggered cascade in limulus amoebocyte lysate to achieve an enzymatic reaction, which catalyses the release of p-nitroaniline from a synthetic substrate, producing a yellow color, which is quantifiable by absorbance at 405nm. The ENC50 (Endotoxin Neutralization Concentration) refers to the peptide concentration required to neutralize 50% of a predetermined quantity of endotoxin. A low ENC50 indicates high potency of the peptide for endotoxin neutralization.
In this assay, peptides of different concentrations were incubated for 1 h at 37° C. with or without an equal volume of LPS in disposable, endotoxin-free borosilicate tubes. Fifty microliters of each mixture was then dispensed into wells of a sterile microtiter plate (Nunclon™ Δsurface, Nunc). Fifty microliters of freshly reconstituted LAL reagent was dispensed into each well.

[4] = Surface plasmon resonance (BIAcore 2000, HPA chip) realtime interaction analysis between peptides and LPS; type: binding; details: 20 mM Tris-Cl, pH7.3; HPA chip immobilized with lipid A; mean of three independent experiments
Experimental: Surface plasmon resonance (SPR) analysis of the real time interaction between peptides and LPS was performed with BIAcore 2000 (Pharmacia) using HPA chip (Tan et al, 2000b). The affinity constant was calculated using BIAevaluation software 3.0. The mean values were obtained from three independent experiments.
At 4 μg/ml, both recombinant peptides reached saturation of binding to LPS (FIG. 4), while the chemically synthesized peptide continued linearly and required 20 μg/ml to reach saturation of binding with LPS (data not shown). The EBC50 (Endotoxin Binding Concentration) of the peptide, which achieves 50% of maximum binding to LPS on the ELISA plate, reflects the binding activity of peptide to LPS, with the lower EBC50 indicating higher potency. […] The kinetics of binding of peptides to LPS in 20 mM Tris-Cl, pH7.3, was also measured by SPR analysis with BIAcore 2000 using HPA chip, which was immobilized with lipid A (bioactive moiety of LPS). The Kd values of chemically synthesized S3, rS3-1mer and rS3-4mer are (7.80±2.18)×10^−7 M, (4.74±2.34)×10^−8 M, (1.71±1.86)×10^−8 M, respectively.

[5] = compared with rS3-1mer and chemically synthesized S3

Molecule | ENC50, concentration to achieve 50% inhibition of LPS-induced hTNF-α production [1] | EBC50 (Endotoxin Binding Concentration) [2] | ENC50 (50% endotoxin-neutralizing concentration), inhibition of LPS-induced LAL assay [3] | Kd [4] | fold higher anti-LPS activity than the monomers (suppression of TNF-α release) [1, 5] | fold stronger LPS neutralization efficacy than the monomeric peptides (LAL inhibition) [3, 5]
rS3-1mer: recombinant S3 monomer from acid digestion of rS3-4mer, with additional Asp and Pro at the ends, SEQ ID NO:7 (PHAEHKVKIGVEQKYGQFPQGTEVTYTCSGNYFLMD) | 83.2 µg/mL | 1.02 µg/mL | 9.2 µg/mL | 47.4 nM |  | 
B1 | 40.4 µg/mL | 0.41 µg/mL | 5.4 µg/mL | 17.1 nM | 2 fold | 2 fold
